From PMC7472852, “The Phosphatase PP2A Interacts With ArnA and ArnB to Regulate the Oligomeric State and the Stability of the ArnA/B Complex” (Frontiers in Microbiology, 2020)

B1: N-terminally Strep-tagged ArnA (natural protein, S. acidocaldarius, UniProt Q4J9H4 1-206, looked up)
chain: MTWKCNLCGYENDDDALFCIKCGAQKSSEAQQLPQQQPSEPQAQGVVTQQQVVTNPPVQAQVATPQQPAQQPVLPQPEPAQPQPVSSTPAPQQASQPTNRYYIYFIQTPNENLVNKKVLLNFDLFPSVSMGRSPENIVIVPDSEVSRKHAVIYLDNSELYIEDLNSTNGTYVYDGKQFTPIKGKQKIEPNSIIKLGNQTIVRILKE
notes: ArnA of Sulfolobus acidocaldarius; printed molecular mass of Strep-ArnA 26.8 kDa; also called Strep-ArnA; source: E. coli Rosetta (DE3)/pLysS, purified (heat step, streptavidin beads, SEC); not shown: Strep II, N-terminal, kept
B2: C-terminally His-tagged ArnB (natural protein, S. acidocaldarius, UniProt Q4J9H3 1-380, looked up)
chain: MTISVKAELSHKYSFTSPLKGVFRLIIVPEKVSTARGFHYIILLDTSGSMYGVKIETAKQGAMELLSRIPEGNKISFLTFSNNVNILSEYADAPSLVQQIKQIRSGGQTVLYRALERAIEIAKKHDLPGYIILLTDGQPTDVPETDAYEKLNYPEAYKVIAFGIGDDYNERLLKVITDKTAGILYHVEDAKEIAEMLPQSAVTEIGAKNVSIDIVSETQVKLLNYPGPPVKLGAVESVVRVYGEIIIPPNFTGRLATVKISYEDPLSSRINRLEVNFDITRANDVKRFLDGINNDLVNEYRYYELMSKLANQLNSNNLSEATRTVEQMQMIAQQTRRMELIETTRRISESIETTRRIGTVEQTRKISKEITSEVTKKLRS
notes: ArnB of Sulfolobus acidocaldarius; printed molecular mass of ArnB-His 43.6 kDa; also called ArnB-His; source: E. coli Rosetta (DE3)/pLysS, purified (heat step, Ni-NTA, SEC); not shown: His, C-terminal, kept
B3: phosphorylated ArnA/B complex (complex, S. acidocaldarius)
chain 1: B1 chain
chain 2: B2 chain
modifications: phosphorylated in vitro by the kinase ArnC (sites not given) | phosphorylated in vitro by the kinase ArnC (sites not given)
notes: ArnA of Sulfolobus acidocaldarius; ArnB of Sulfolobus acidocaldarius; Same tag uncertainty as m13; ArnB is the chain that is mainly phosphorylated in the complex; also called phosphorylated oligomeric ArnA/B complex; (ArnA/B)2; source: reconstituted ArnA/B complex (E. coli proteins, SEC-isolated) incubated with ArnC, ATP and Mn2+ at 55°C for 30 min

Legend:
[1] = target: His-tagged ArnA (S. acidocaldarius); test: mass photometry; Refeyn OneMP, 20-100 nM protein in 50 mM Tris pH 8.0, 150 mM NaCl; SEC fractions of ArnA, ArnB, ArnA/B complex and phosphorylated ArnA/B complex
[2] = target: the molecule itself; test: SEC; Superdex 200 (16/600), 50 mM Tris pH 8, 150 mM NaCl; equal amounts of ArnA and ArnB mixed and kept on ice for 1 h; fractions on SDS-PAGE; stoichiometry concluded from SEC and mass photometry together
[3] = target: B1; test: as above; settings: both partners purified
[4] = target: the molecule itself; test: mass photometry; Refeyn OneMP, 20-100 nM protein in 50 mM Tris pH 8.0, 150 mM NaCl; SEC fractions of ArnA, ArnB, ArnA/B complex and phosphorylated ArnA/B complex

His-tagged ArnA (natural protein)
stoichiometry N [1]: 2

B1
stoichiometry N [2]: 2

B2
stoichiometry N [1]: 1 | stoichiometry N [3]: 1

B3
stoichiometry N [4]: 2 ArnA/B heterodimers per complex
